Measurements reported in article PMC10952558, “Domain shuffling of a highly mutable ligand‐binding fold drives adhesin generation across the bacterial kingdom” (Proteins, 2023).
Where two headings read alike, the source gives them in different places.

Experiments:
[1] = target: cellular fibronectin (human); experiment: MST; RED-NHS labeled cFn at 50 nM mixed with 16 concentrations (92 pM-3 uM) of the unlabeled protein; 637 mM NaCl, 2.7 mM KCl, 10 mM Na2HPO4, 1.8 mM KH2PO4, pH 7.4; 22-23°C; Monolith NT.115, MST power 40%, excitation 20%; triplicate; single-site dose-response model
[2] = target: the molecule itself; experiment: crystal structure; dimeric SEC fraction of C-terminally His-tagged CshB_NR2; sitting drop, 20°C, 0.1 M SPG buffer pH 5, 25% w/v PEG 1500; molecular replacement with 5L2D; 1.4 Å
[3] = target: cellular fibronectin (human); experiment: MST; RED-NHS labeled cFn at 50 nM mixed with 16 concentrations (92 pM-3 uM) of the unlabeled protein; 637 mM NaCl, 2.7 mM KCl, 10 mM Na2HPO4, 1.8 mM KH2PO4, pH 7.4; 22-23°C; Monolith NT.115, MST power 40%, excitation 20%; triplicate; single-site dose-response model; remark: listed apart in the source

CshB_NR2 (NR2 domain of CshB), N-terminally hexa-histidine-tagged variant (from UniProt A8AXC5 211-528) (domain or fragment)
Kd [1]: 530 nM

B1: CshB_NR2 (NR2 domain of CshB), C-terminally hexa-histidine-tagged variant, dimeric form (domain or fragment)
chain: WLDFSDSASWKNLDQRGGLKVGTTFTKEISPGYVVTLTVKELKPFNSTEIYKKRVAGTATEGTYNPDAENGFLTSAPYYGKTPPPSVTGAAQNEWTTIRDQGFNTQKRKTQLVYPMNSTNWGVKFDIEATYLGKRVAPTVVMADGEDANPGEFAIFTTNGTGWEYMGEWKMKSPAKEAYTVITKKMLDDEDVKRRGLLILKDKSVDWYKYLSPDTVTGGLGSQVFGPNRSNERTVPVVMTRGASEVGFYVASSGQQAMMMGFLVVDVSDAPESYGEAFHTISTRDSVTNDPINQPYLGTTPADIDVESSNDWVLDDKK
notes: CshB, Streptococcus gordonii DL1, NR2 domain, residues 211-528 of the full-length CshB polypeptide; amplified from chromosomal DNA, in pOPINE; Used for crystallization; Only the dimeric SEC fraction crystallised
stoichiometry N [2]: 2

B2: CshA_NR2 (NR2 domain of cell surface hydrophobicity protein A), wild type (domain or fragment)
chain: WVDFSDTASMKNLDPQGGFKVGTVFKKEISPGYVVTLTVTELKPFNSTEIYKKRVEGTPTANTYDPNAINSYLKGYKDYGKTPPSVTGRPQNKFSTIGGQGFDTQGRKTQIILPDDAVNWGIKFKVEATYRGNPVKPSVVMADGEDANPAEYGIFTTNGEGWEYVGEWMKGPRAKGPYTVMTEDMVKAFDKTRKDGLLILKDKSVDWSKYLSPDTVTGGLGSQVFGPIISASKAVPVVMTRGASEVGFYVATGGQQALMMGFLVVDSSDAPASYGEAYHTIGTRDSIANTPINQPYLGSTAADIDADSESDWTADDRE
Kd [3]: 302 nM
